According to patent US6855515 (MERCK, dated 2005):

Assays:
Assay in all cases: Ki printed in running text; no assay described
[1] = target: T1, caspase-10 (UniProt Q92851 220-521, limits assumed)
T1 sequence (looked up): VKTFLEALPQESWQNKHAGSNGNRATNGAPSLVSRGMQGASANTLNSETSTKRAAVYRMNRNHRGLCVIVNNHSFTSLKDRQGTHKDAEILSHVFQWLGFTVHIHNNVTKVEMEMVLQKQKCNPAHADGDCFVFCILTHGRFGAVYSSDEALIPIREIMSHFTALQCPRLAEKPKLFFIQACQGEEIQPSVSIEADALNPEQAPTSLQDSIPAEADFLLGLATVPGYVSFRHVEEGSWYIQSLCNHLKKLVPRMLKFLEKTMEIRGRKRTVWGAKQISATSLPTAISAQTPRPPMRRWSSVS

[2] = target: T2, caspase-1 (UniProt P29466 120-297; P29466 317-404, limits assumed)
T2 sequence (looked up) 1: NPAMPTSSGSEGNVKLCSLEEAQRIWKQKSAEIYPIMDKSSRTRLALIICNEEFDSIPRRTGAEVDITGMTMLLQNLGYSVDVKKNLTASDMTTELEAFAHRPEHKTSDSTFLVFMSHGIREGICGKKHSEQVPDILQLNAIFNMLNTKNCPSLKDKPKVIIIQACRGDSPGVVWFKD
T2 sequence (looked up) 2: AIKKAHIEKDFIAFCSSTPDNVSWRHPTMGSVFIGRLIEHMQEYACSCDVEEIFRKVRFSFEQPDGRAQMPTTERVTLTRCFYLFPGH

[3] = target: T3, caspase-7 (UniProt P55210 24-198; P55210 207-303, limits assumed)
T3 sequence (looked up) 1: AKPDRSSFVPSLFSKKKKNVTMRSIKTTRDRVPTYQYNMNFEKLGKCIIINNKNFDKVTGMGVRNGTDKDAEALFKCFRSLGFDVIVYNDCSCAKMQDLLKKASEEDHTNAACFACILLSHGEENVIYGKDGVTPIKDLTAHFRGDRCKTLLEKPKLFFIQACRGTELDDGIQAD
T3 sequence (looked up) 2: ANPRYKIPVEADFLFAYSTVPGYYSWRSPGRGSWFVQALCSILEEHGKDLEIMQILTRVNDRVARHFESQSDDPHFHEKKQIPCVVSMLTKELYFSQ

[4] = target: T4, caspase-8 (UniProt Q14790 217-374; Q14790 385-479, limits assumed)
T4 construct: also called purified caspase-8
T4 sequence (Q14790 217-374 limits assumed, form in doubt, chain 1 of 2): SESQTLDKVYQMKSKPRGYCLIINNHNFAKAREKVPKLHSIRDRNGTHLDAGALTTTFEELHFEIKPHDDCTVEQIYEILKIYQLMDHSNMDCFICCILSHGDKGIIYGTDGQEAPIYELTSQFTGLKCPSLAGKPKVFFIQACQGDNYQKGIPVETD
T4 sequence (Q14790 385-479 limits assumed, form in doubt, chain 2 of 2): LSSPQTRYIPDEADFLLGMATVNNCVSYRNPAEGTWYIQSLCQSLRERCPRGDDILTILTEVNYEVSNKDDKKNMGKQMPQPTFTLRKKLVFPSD

B1: Ac-YVAD-CHO, N-(N-Ac-Tyr-Val-Ala)-3-amino-4-oxobutanoic acid (peptide)
peptide: Ac-YVAD-aldehyde
[1]
  Ki: 408 nM
[2]
  Ki: 0.6 nM

B2: Ac-DEVD-CHO, N-(N-Ac-Asp-Glu-Val)-3-amino-4-oxobutanoic acid (peptide)
peptide: Ac-DEVD-aldehyde
[3]
  Ki: 1 nM
[4]
  Ki: 0.92 nM
[1]
  Ki: 12 nM
[2]
  Ki: 17 nM
